The target of experiment [1] is prefusion stabilized trimeric SARS-CoV-2 spike protein ectodomain (SARS-CoV-2) (UniProt P0DTC2).
Experiment [2] has the same target. This is another data set of the same source.

For the substance ACE2-short-3HB (receptor), in experiment [1], the dissociation constant Kd is 3.9 nM. The same substance gave an IC50 in experiment [2] of 2.9 nM.
